Target: Coxsackie B–Adenovirus Receptor (CAR), human, of 293 cells (human (endogenous in 293)) (UniProt P78310)
Test: ELISA; virus attachment assay: cells on 96-well plates, biotinylated AdV5 (MOI=100 virus particles per cell) for 90 min on ice (4 °C) or at 37 °C, washed, fixed with 3 % paraformaldehyde, streptavidin-HRP; anti-CAR antibodies blocked 95–98 % of the signal (data not shown)

Sequence of UniProt P78310 (P78310 20-365): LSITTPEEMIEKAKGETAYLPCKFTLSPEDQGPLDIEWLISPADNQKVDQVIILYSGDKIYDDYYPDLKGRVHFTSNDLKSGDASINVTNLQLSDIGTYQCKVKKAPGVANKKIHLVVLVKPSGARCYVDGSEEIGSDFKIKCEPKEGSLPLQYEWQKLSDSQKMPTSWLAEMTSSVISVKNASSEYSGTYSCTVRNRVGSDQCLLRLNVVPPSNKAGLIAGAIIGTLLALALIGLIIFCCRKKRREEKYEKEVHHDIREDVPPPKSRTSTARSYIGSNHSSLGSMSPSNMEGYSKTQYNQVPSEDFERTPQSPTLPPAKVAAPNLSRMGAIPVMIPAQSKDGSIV

Substance: biotinylated AdV5-GFP virus particles (complex)
- percent of the virus attached to cells: > 60%
